Residue numbers refer to the chain shown, from its start. In names and notes the source's numbering stands.
B1: MscS YFF A98W (complex, E. coli, UniProt P0C0S1 1-286, looked up)
chain: MEDLNVVDSINGAGSYLVANQALLLSYAVNIVAALAIIIVGLIIARMISNAVNRLMISRKIDATVADFLSALVRYGIIAFTLIAALGRVGVQTASVIWVLGAAGLAVGLALQGSLSNLAAGVLLVMFRPFRAGEYVDLGGVAGTVLSVQIFSTTMRTADGKIIVIPNGKIIAGNIINFSREPVRRNEFIIGVAYDSDIDQVKQILTNIIQSEDRILKDREMTVRLNELGASSINFVVRVFSNSGDLQNVYFDVLERIKREFDAAGISFPYPQMDVNFKRVKEDKAA
B2: MscS YFF G90W (complex, E. coli)
chain: B1 chain with G90W, W98A
B3: MscS YFF I97W (complex, E. coli, UniProt P0C0S1 1-286, looked up)
chain: B1 chain with I97W, W98A
B4: MscS YFF R88W (complex, E. coli, UniProt P0C0S1 1-286, looked up)
chain: B1 chain with R88W, W98A
B5: MscS YFF T93W (complex, E. coli)
chain: B1 chain with T93W, W98A
B6: MscS YFF G113W (complex, E. coli, UniProt P0C0S1 1-286, looked up)
chain: B1 chain with W98A, G113W
B7: MscS YFF L105W (complex, E. coli, UniProt P0C0S1 1-286, looked up)
chain: B1 chain with W98A, L105W
B8: MscS YFF G101W (complex, E. coli, UniProt P0C0S1 1-286, looked up)
chain: B1 chain with W98A, G101W
B9: MscS YFF A103W (complex, E. coli, UniProt P0C0S1 1-286, looked up)
chain: B1 chain with W98A, A103W
B10: MscS YFF A94W (complex, E. coli)
chain: B1 chain with A94W, W98A
B11: wild-type (WT) MscS (complex, E. coli)
chain: B1 chain with Y16W, W98A, F240W, F251W
B12: MscS YFF (complex, E. coli)
chain: B1 chain with W98A
B13: MscS YFF L109W (complex, E. coli, UniProt P0C0S1 1-286, looked up)
chain: B1 chain with W98A, L109W

Target: the molecule itself
Assay: SEC; HiPrep Superdex 200 16/600 after Ni-NTA; 0.03% DDM, 50 mM sodium phosphate pH 7.5, 150 mM NaCl; ratio of heptamers to monomers

Protein	binding result
B1	binds
B2	binds
B3	binds
B4	binds

Target: the molecule itself
Assay: native gel or EMSA; BN-PAGE after the fluorescence measurements of purified MscS reconstituted into DOPC bilayers (molar ratio 1:100; 40 mM HEPES pH 7.2, 100 mM KCl, 1 mM EGTA)

Protein	stoichiometry N
B5	7
B6	7
B7	7
B8	7
B9	7
B10	7

Target: the molecule itself
Assay: native gel or EMSA; BN-PAGE with Western blot for the His tag; membranes (30 ug protein) solubilised in PBS pH 7.4 with 1% DDM, 2.8 M urea, 1 mM EDTA, 30 min, room temperature; heptamer to monomers

Protein	stoichiometry N
B11	7
B12	7

Target: the molecule itself
Assay: FRET or BRET; homo-FRET between Trp residues of different subunits read by steady-state fluorescence anisotropy; heptameric and dissociated fractions from SEC, DDM-solubilised; excitation 295 nm, emission 340-360 nm

Protein	binding result
B13	binds

Reference: PMC4519979 (Biochemistry, 2015)
